Test results: PMC4451072, “A Linear Epitope in the N-Terminal Domain of CCR5 and Its Interaction with Antibody” (PLoS ONE, 2015)
Entries after “also recorded” stand apart in the source; their conditions may differ. Where two headings read alike, the source gives them in different places.

Legend:
[1] = system: hCCR5_1–31; assay: Epitope mapping with truncated peptides by competitive ELISA; assay type: binding, human
Source text: (§1) The peptide encoding the N-terminal extracellular domain of human CCR5 ([…]-biotin, hCCR5_1–31) was synthesised by the Peptide Synthesis Laboratory, Cancer ResearchUK. The same peptide without the C-terminal cysteine biotin was synthesised by PeptideSynthetics (Fareham PO15 6DP). An analogue of the peptide with sulphated tyrosines at position 10 and 14 was synthesised as described previously and given as a gift by Prof. Fred Naider (City University of New York). The panel of truncated peptides used for epitope mapping (See Results, Subsection “Defining a linear epitope in the N-terminal domain of CCR5”) was synthesised by Sigma (Pepscreen). The chimeric peptide used for immunisation ([…]) was synthesised by the peptide synthesis facility at the University of Ghent. All peptides were >80% pure by HPLC and mass spectroscopy.
The pepscreen panel of CCR5 truncated peptides was screened by competitive ELISA. Antibody supernatant (typically diluted 1 in 1000 or 1 in 4000) was added to N-terminal domain peptide coated ELISA plates in the presence or absence of 1 μg/well of one of the competing peptides. The antibody peptide mixture was incubated overnight, washed and then bound antibody measured as described above.

[2] = system: CCR5 on human peripheral blood subpopulations; assay: Expression of CCR5 on human peripheral blood subsets as detected by RoAb13; assay type: binding; settings: S2 Fig
Source text: Peripheral blood subpopulations were stained using purified RoAb13 Fab fragment directly conjugated with […] as per manufacturer’s instructions.

[3] = system: untransfected controls (CHO cells); assay: Flow cytometry binding of antibodies to untransfected controls; parameters: species or system Chinese hamster; settings: normalized to % maximum binding for each antibody
Source text: (§2) Chinese hamster ovary cells were transfected by electroporation with vectors expressing human or mouse CCR5 in an expression vector containing a neomycin resistance gene (Genecopoeia, #EX-Z0659-M02 and #EX-Mm01826-M02 respectively). G418 resistant cells were cloned by limit dilution and receptor expressing cells were identified by flow cytometry using RoAb13 anti-CCR5 and Rabbit anti-mouse FITC for human CCR5, and PE anti-Mouse CD195 (CCR5) (clone HM-CCR5, Insight Biotechnology) for mouse CCR5.
(§3) CHO cell transfectants (5 × 10^4) were incubated in 10% goat serum (Sigma) and 0.1% sodium azide for 30 min at 4°C. Purified antibodies or mouse sera at various dilutions were added, and incubated for 2–3 h at 4°C. Cells were washed and bound antibody detected using […] FITC or APC conjugates (R&D Systems). The number of bound antibody molecules was quantified in some experiments using Quikfit calibration beads containing known numbers of bound mouse IgG molecules as per manufacturers instructions (DAKO, #K0078).

[4] = system: human peripheral blood leukocytes; assay: Transwell migration assay, peripheral blood leukocytes; assay type: cell-based; settings: responses to individual chemokines or inflammatory macrophage conditioned media
Protocol: (§4) Peripheral blood mononuclear cells and monocyte derived macrophages were prepared from peripheral blood as previously described. The study was approved by the joint University College London / University College London Hospitals NHS Trust Human Research Ethics Committee and written informed consent was obtained from all participants. […] Conditioned media from these cultures were then centrifuged at 10,000g for 5 minutes and stored at -80°C. Polycarbonate transwell inserts (Corning No. 3421, with […] and 6.5 mm diameter) were placed over 500 μL conditioned media or control media or media containing purified chemokines in 24-well plates. […] of freshly isolated PBMC (5x10^6 cells /mL) were loaded into the upper chamber of the transwell, and incubated for 3 hours at 37°C. Transwells were then lifted out of the lower chamber and the contents of the upper chamber were carefully aspirated. Each transwell filter was subsequently tilted to rinse the under surface twice with 200 μL 0.25% Trypsin-EDTA (Gibco) that was allowed to drain into the well (lower chamber). […] The lower chamber cell suspension was collected and fixed with 1% paraformaldehyde in phosphate buffered saline (PBS). […] 10 000 beads were counted to standardised cell count quantitation in each sample and transmigration of cells in the lower chamber was expressed as the proportion of the input.

[5] = system: human CCR5 (CHO cell transfectants); assay: Flow cytometry binding of antibodies to CCR5-transfected CHO cells; settings: indirect immunofluorescence
Source text: as §2, §3

[6] = system: cell surface CCR5 (expressed on CCR5 transfectants); assay: Affinity of RoAb13 for cell surface CCR5 by flow cytometry (Scatchard plot); assay type: binding, human; settings: abstract value, CCR5-transfected cells
Source text: as §2, §3

[7] = system: hCCR5_1–31 analogue with sulphated tyrosines at position 10 and 14; assay: ELISA binding of RoAb13 to sulphated N-terminal CCR5 peptide; parameters: species or system human
Source text: as §1
(§5) 96 well ELISA plates (Nunc) were coated with peptide conjugates (10 μg/ml unless otherwise stated) in coating buffer (0.1 M sodium bicarbonate, pH 8.5), overnight at 4°C. All wells were washed (washing buffer PBS 0.1% Tween-20) and blocked by addition of 2% low fat milk (Tesco) in PBS for at least 1 h at room temperature. […] Unconjugated avidin was used as control coating. […] Bound antibody was detected using alkaline phosphatase coupled rabbit anti-mouse IgG or IgGFab (Sigma) antibody (1:2000 dilution) and substrate (PNPP FAST, Sigma). […]

[8] = system: CHO-CCR5 transfected cells; settings: ref [19]; cited from earlier work
Source text: The clear cut inhibitory effects of the antibody even ...

[9] = system: hCCR5_1–31; assay: ELISA binding of antibodies to the N-terminal CCR5 peptide; parameters: species or system human; settings: peptide coupled to avidin, OD 405 nm
Source text: as §1, §5

[10] = system: monocytes; assay: Transwell migration assay, monocytes; assay type: cell-based, human; settings: for migration of monocytes to macrophage conditioned medium: 3 h at 37°C, conditioned medium from resting and activated (LPS) macrophages
Protocol: Peripheral blood mononuclear cells and monocyte derived macrophages were prepared from peripheral blood as previously described. The study was approved by the joint University College London / University College London Hospitals NHS Trust Human Research Ethics Committee and written informed consent was obtained from all participants. […] Conditioned media from these cultures were then centrifuged at 10,000g for 5 minutes and stored at -80°C. Polycarbonate transwell inserts (Corning No. 3421, with […] and 6.5 mm diameter) were placed over 500 μL conditioned media or control media or media containing purified chemokines in 24-well plates. […] of freshly isolated PBMC (5x10^6 cells /mL) were loaded into the upper chamber of the transwell, and incubated for 3 hours at 37°C. Transwells were then lifted out of the lower chamber and the contents of the upper chamber were carefully aspirated. Each transwell filter was subsequently tilted to rinse the under surface twice with 200 μL 0.25% Trypsin-EDTA (Gibco) that was allowed to drain into the well (lower chamber). […] The lower chamber cell suspension was collected and fixed with 1% paraformaldehyde in phosphate buffered saline (PBS). […] A FACScalibur flow cytometer (Becton Dickinson) was used with FlowJo (version 9.4.3) analysis software. 10 000 beads were counted to standardised cell count quantitation in each sample and transmigration of cells in the lower chamber was expressed as the proportion of the input.

[11] = system: hCCR5_1–31 N-terminal domain peptide; assay: Affinity of RoAb13 for hCCR5_1–31 peptide by competitive (two-stage) ELISA; assay type: binding, human; settings: abstract value
Source text: as §1, §5

[12] = system: HIV; settings: cited from earlier work
[13] = system: mouse CCR5; assay: Flow cytometry binding of antibodies to CHO cells transfected with mouse CCR5; settings: normalized to % maximum binding for each antibody
Source text: as §2, §3

[14] = system: lymphocytes; assay: Transwell migration assay, lymphocytes; assay type: cell-based, human; settings: 3 h, conditioned medium from resting and activated macrophages
Protocol: as §4

peptide spanning the whole of 5–25: peptide of the pepscreen panel spanning CCR5 residues 5–25 (VSSPIYDINYYTSEPCQKINV; UniProt P51681 5-25, looked up, fragment)
inhibition of R&D1801 binding to hCCR5_1–31 ([1]; competing peptide 1 μg/well, overnight, competitive ELISA): completely blocked

B1: RoAb13: mouse monoclonal anti-CCR5 antibody from hybridoma line number PZ3733 (Roche Palo Alto); EMBL LN832627 and LN832628 (antibody, V domains shown)
VH: EVQLQESGGGLVKPGGSLKLSCAASGFTFSTYAMSWVRQTPEKRLEWVASISTGDNTYYTDSVRGRFTISRDNARNILYLQMSSLRSEDTAMYFCTRGRGDRGDLFGYWGQGTLVTVSS
VL: DIVMSQSPSSLAVSVGEKVTMSCKSSQSLLYRGNQMNYLAWYQQKPGQSPKLLIYWASTRESGVPDRFTGSGSGTEFTLTISSVKAEDLTVYYCQQYYTYPRTFGGGTKLEIK
core epitope recognised ([1]; competitive ELISA with truncated peptides, defined by inhibition of binding by more than 50%): between aa8 (proline) and 13(asparagine)
detection of CCR5 on CD4, CD8 and NK cells [2]: detected CCR5 on a subpopulation of human peripheral CD4, CD8 and NK cells
detection of CCR5 on monocytes and B cells [2]: low levels of CCR5 expression
binding to untransfected controls [3]: less than 5 % of maximum binding
chemokine or conditioned media induced leukocyte migration [4]: effectively blocked chemokine induced migration of human peripheral blood leukocytes
binding to CCR5-expressing transfectants [5]: bound strongly to CCR5-expressing transfectants; also recorded: quite heterogenous
affinity for cells [6]: 6e+08 M⁻¹
binding to sulphated vs non-sulphated peptide ([7]; peptide sulphated at tyrosines 10 and 14): bound more strongly (heteroclytic binding) to sulphated than non-sulphated forms of the peptide; also recorded: binding to peptide was significantly enhanced by the sulphation of target tyrosines
binding to sulphated vs non-sulphated peptide ([7]; peptide sulphated at tyrosines 10 and 14, listed as RoAb 13): binding to the peptide is enhanced by sulfation of tyrosines at positions 10 and 14
block of binding of CCL3, 4 and CCL5 [8]: only partial ability to block binding of CCL3, 4 and CCL5
block of chemokine induced calcium flux [8]: only partial ability
recognition of the synthetic N-terminal peptide [9]: recognised the synthetic peptide; also recorded: bound to both linear peptide and native forms of the epitope
migration in response to CCR5 binding chemokines [10]: blocks migration of monocytes in response to CCR5 binding chemokines; also recorded: ability to block chemokine induced monocyte migration; also recorded: inhibits migration induced by chemokines which bind CCR5
migration of monocytes to macrophage conditioned medium [10]: blocks migration of monocytes; also recorded: inhibits monocyte chemotaxis
migration in response to CCL2 ([10]; CCL2, S3 Fig): blocked migration
migration in response to CCL3 ([10]; CCL3, S3 Fig): blocked migration
migration in response to CCL4 ([10]; CCL4, S3 Fig): blocked migration
migration in response to CXCL12 ([10]; CXCL12 (acts via CXCR4), S3 Fig): failed to block migration
affinity for peptide [11]: 1.2e+07 M⁻¹
HIV blocking ([12]; previously shown): block HIV infection; also recorded: potent HIV blocking activity
inhibition of HIV infection ([12]; ref [19],[32]): potent inhibitor of HIV infection
inhibition of HIV infection ([12]; single round and spreading infection assays, ref [19]): inhibit HIV infection, in both single round and spreading infection assays
binding to CHO cells transfected with mouse CCR5 [13]: less than 5 % of maximum binding

B2: RoAb13 Fab fragment: Fab fragment of RoAb13 produced by papain digestion; PDB 4S2S (antibody, V domains shown)
VH: EVQLQESGGGLVKPGGSLKLSCAASGFTFSTYAMSWVRQTPEKRLEWVASISTGDNTYYTDSVRGRFTISRDNARNILYLQMSSLRSEDTAMYFCTRGRGDRGDLFGYWGQGTLVTVSS
VL: DIVMSQSPSSLAVSVGEKVTMSCKSSQSLLYRGNQMNYLAWYQQKPGQSPKLLIYWASTRESGVPDRFTGSGSGTEFTLTISSVKAEDLTVYYCQQYYTYPRTFGGGTKLEIK
migration of lymphocytes to macrophage conditioned medium [14]: not lymphocytes
migration of monocytes to macrophage conditioned medium [10]: significant difference from control (T test, p<0.05)
migration of monocytes to macrophage conditioned medium ([10]; listed as Fab fragment of RoAb13): significantly inhibited the migration of monocytes
